We go through one substance from patent US20130158103A1.

The target of the experiment is TGFβ1 (PeproTech Inc, Rocky Hill, N.J.). In words: cell-based or functional assay.

Turning to “human decorin (Accession #NM-001920), expressed in human corneal fibroblasts (HSF) from pcDNA3.1-decorin (from UniProt P07585 31-359)”, the SMA RNA level (real-time PCR), decorin-transfected vs un-transfected HSF with TGFβ1 1 ng/ml is greater than 6 fold; the SMA protein level (western blot), decorin-transfected vs un-transfected HSF with TGFβ1 turned out to be 83%; the SMA-stained cells (immunocytochemistry), decorin-transfected vs un-transfected HSF with TGFβ1 is 79%; the collagen type I RNA level (real-time PCR), decorin-transfected vs naked-vector transfected HSF with TGFβ1 1 ng/ml came out at 1 fold. Also, the collagen type III RNA level (real-time PCR), decorin-transfected vs naked-vector transfected HSF with TGFβ1 1 ng/ml was 0.9 fold; the collagen type IV RNA level (real-time PCR), decorin-transfected vs naked-vector transfected HSF with TGFβ1 1 ng/ml is 3.2 fold; the fibronectin RNA level (real-time PCR), decorin-transfected vs naked-vector transfected HSF with TGFβ1 1 ng/ml came out at 3.1 fold.
